The text below walks through data of article doi:10.1101/038398.

Assay [1] deals with human iNOS oxygenase domain, recombinant (human). As to the kind of experiment: ITC. On the technique in general: Isothermal titration calorimetry measures the heat released or taken up as one component is titrated into another.
The target is the same in assay [2]. As to the kind of experiment: SPR.

Sequence of human iNOS oxygenase domain, recombinant (human) (P35228 whole entry, the tested form may be a part): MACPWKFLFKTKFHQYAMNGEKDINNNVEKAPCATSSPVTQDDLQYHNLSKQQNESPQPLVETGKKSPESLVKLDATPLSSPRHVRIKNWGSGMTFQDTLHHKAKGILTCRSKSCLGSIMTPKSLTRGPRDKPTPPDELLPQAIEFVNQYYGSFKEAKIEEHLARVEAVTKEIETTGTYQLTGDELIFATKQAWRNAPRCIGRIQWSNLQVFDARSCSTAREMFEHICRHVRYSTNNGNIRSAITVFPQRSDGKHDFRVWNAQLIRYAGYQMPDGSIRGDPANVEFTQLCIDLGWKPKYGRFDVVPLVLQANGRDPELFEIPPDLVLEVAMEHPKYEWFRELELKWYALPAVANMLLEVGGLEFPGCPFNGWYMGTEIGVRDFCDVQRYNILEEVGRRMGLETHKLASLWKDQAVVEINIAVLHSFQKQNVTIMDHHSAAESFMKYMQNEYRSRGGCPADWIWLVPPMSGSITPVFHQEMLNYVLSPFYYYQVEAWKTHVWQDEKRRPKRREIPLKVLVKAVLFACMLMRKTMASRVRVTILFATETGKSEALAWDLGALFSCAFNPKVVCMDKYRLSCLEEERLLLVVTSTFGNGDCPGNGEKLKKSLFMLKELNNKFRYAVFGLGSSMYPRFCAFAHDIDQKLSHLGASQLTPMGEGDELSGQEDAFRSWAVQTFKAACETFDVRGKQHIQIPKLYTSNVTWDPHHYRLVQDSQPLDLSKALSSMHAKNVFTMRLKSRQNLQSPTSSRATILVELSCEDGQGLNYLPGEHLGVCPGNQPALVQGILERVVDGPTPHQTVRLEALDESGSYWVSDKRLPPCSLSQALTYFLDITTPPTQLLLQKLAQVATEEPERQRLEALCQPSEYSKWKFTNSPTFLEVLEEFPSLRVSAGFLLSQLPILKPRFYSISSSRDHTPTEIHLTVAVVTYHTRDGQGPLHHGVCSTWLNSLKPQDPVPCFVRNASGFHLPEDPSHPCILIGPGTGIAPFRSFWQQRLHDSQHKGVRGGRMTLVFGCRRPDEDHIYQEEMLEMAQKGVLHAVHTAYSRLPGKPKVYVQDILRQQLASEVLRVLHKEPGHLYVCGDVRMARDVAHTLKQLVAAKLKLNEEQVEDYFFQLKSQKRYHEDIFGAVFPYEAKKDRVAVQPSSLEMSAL

B1: Nitric oxide synthase interacting protein (NOSIP), full length, recombinant (natural protein)
chain: MTRHGKNCTAGAVYTYHEKKKDTAASGYGTQNIRLSRDAVKDFDCCCLSLQPCHDPVVTPDGYLYEREAILEYILHQKKEIARQMKAYEKQRGTRREEQKELQRAASQDHVRGFLEKESAIVSRPLNPFTAKALSGTSPDDVQPGPSVGPPSKDKDKVLPSFWIPSLTPEAKATKLEKPSRTVTCPMSGKPLRMSDLTPVHFTPLDSSVDRVGLITRSERYVCAVTRDSLSNATPCAVLRPSGAVVTLECVEKLIRKDMVDPVTGDKLTDRDIIVLQRGGTGFAGSGVKLQAEKSRPVMQA
For the molecule B1, in assay [1], the dH was -38.2 kcal/mol and the stoichiometry N amounted to 0.505. In assay [2], the Kd was 7.11 nM.

The term stoichiometry N denotes a count of units in the complex or per binding partner. As usually defined, the Kd is the constant that tells how readily two partners part at equilibrium.
